{"source": "paper PMC3763426", "about": "“Genetic and structural validation of Aspergillus fumigatus N-acetylphosphoglucosamine mutase as an antifungal target” (Bioscience Reports, 2013)", "key": {"[1]": {"biological_target": "T1, AfAGM1 (A. fumigatus N-acetylphosphoglucosamine mutase) (Aspergillus fumigatus, UniProt Q4WJF0, DEL85-101)", "T1 construct": "gene AFUA_1G06210; deletion of VSSYGTFDGGMKGEFAD, residues 85–101 of XP_750370 (likely alternative splicing); GST tag cleaved; pSer69", "T1 sequence (Q4WJF0 entry or part of it DEL85-101)": "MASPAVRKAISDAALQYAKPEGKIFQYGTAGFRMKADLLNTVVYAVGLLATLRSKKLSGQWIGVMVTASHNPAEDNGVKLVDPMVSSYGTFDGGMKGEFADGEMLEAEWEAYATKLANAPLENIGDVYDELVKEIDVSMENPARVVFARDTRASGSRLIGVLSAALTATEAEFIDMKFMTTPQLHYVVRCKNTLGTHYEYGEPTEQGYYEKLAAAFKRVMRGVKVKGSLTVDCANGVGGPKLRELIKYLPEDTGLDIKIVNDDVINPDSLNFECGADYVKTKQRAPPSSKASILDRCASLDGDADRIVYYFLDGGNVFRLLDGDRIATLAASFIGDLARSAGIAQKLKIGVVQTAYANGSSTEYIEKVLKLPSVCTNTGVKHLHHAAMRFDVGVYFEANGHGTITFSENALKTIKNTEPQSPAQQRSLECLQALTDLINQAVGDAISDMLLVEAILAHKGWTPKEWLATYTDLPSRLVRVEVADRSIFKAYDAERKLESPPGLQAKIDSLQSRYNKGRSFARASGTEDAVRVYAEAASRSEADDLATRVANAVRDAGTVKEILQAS", "experiment": "direct HPAEC-PAD enzyme assay, […] Glc-1P", "assay_type": "biochemical"}, "[2]": {"biological_target": "T1, AfAGM1 (A. fumigatus N-acetylphosphoglucosamine mutase)", "experiment": "enzyme inhibition kinetics, Lineweaver–Burk plot", "assay_type": "biochemical"}, "[3]": {"tested_on": "CC(=O)N[C@H]1C(O)O[C@H](COP(=O)(O)O)[C@@H](O)[C@@H]1O", "experiment": "purified protein", "details": "Mg2+"}, "[4]": {"tested_on": "O=P(O)(O)O[C@H]1O[C@H](CO)[C@@H](O)[C@H](O)[C@H]1O", "experiment": "purified protein", "details": "Mg2+"}}}
{"molecule": "Cc1nc(/N=N/c2ccc(C(=O)O)cc2)c(COP(=O)(O)O)c(C=O)c1O", "note": "[compound 4, tri-sodium 4-[(2z)-2-[4-formyl-6-metyl-5-oxo-3-(phosphonatooxymetyl)-pyridin-2-ylidene] hydrazinyl] benzoate]", "values": [{"measurement": "IC50", "setting": "[1]", "result": "7.1 ± 0.2", "unit": "µM"}]}
{"molecule": "NC(Cc1cc(O)c(O)cc1O)C(=O)O", "note": "(racemic) [compound 3, 6-hydroxy-DL-DOPA]", "values": [{"measurement": "IC50", "setting": "[1]", "result": "58 ± 4", "unit": "µM"}]}
{"molecule": "Nc1ccc(O)c2c1C(=O)c1c(O)ccc(N)c1C2=O", "note": "[compound 1, 1,5-diamino-4,8-dihydroxyanthraquinone]", "values": [{"measurement": "Ki", "setting": "[2]", "result": "300 ± 13", "unit": "µM"}]}
{"molecule": "AfAGM1 (A. fumigatus N-acetylphosphoglucosamine mutase) (Aspergillus fumigatus Af293; DEL85-101)", "values": [{"measurement": "Km", "setting": "[3]", "result": "25 ± 8", "unit": "µM"}, {"measurement": "kcat", "setting": "[3]", "result": 0.21, "unit": "s⁻¹"}, {"measurement": "kcat/Km", "setting": "[3]", "result": 8400, "unit": "M⁻¹ s⁻¹"}, {"measurement": "Km", "setting": "[4]", "result": "1200 ± 100", "unit": "µM"}, {"measurement": "kcat", "setting": "[4]", "result": 37.6, "unit": "s⁻¹"}, {"measurement": "kcat/Km", "setting": "[4]", "result": 31300, "unit": "M⁻¹ s⁻¹"}]}
